{"source": "patent US8821943B2", "about": "“Methods and compositions for targeted delivery of therapeutic agents” (Board of Regents of the University of Nebraska, priority 2006, dated 2014)", "key": {"[1]": {"experiment": "Particle size, polydispersity and zeta-potential by dynamic light scattering", "type": "physicochemical", "conditions": "Table 6", "method": "Nanoparticle carrier particles were formed by the methods of the preceding Example, and characterized as follows. The particle size and the zeta-potential were measured using Zeta Plus zeta-potential analyzer (Brookhaven Instruments Ltd., New York, N.Y.), which employs the dynamic light scattering technique for particle size measurement. The particle size and zeta-potential measurements were made after 1:1000 dilution of particle stock in filtered deionized water. Further, the particles were visualized using a transmission electron microscope (TEM). The carbon-coated grids were floated on a suspension droplet of plain or functionalized nanoparticles on a flexible plastic film (Parafilm, Pechiney Plastic Packaging, Neenah, Wis.) to allow the adsorption of nanoparticles onto the grid. After drying the particles, uranyl acetate was added as a negative stain to the carbon grid and allowed to react with the particles. This procedure makes the particles electron dense, allowing their visualization using an electron microscope. The particles were photographed using EM410 Phillips electron microscope (Eindhoven, The Netherlands) set at 60 kV and a magnification of 153000×.\nCharacterization of particles: The particle size and the zeta-potential were measured using ZetaPlus® zeta-potential analyzer, Brookhaven Instruments Ltd. (New York, N.Y.), which employs the dynamic light scattering technique for particle size measurement. The particle size and zeta-potential measurements were carried out after 1:1000 dilution of particle stock in filtered deionized water before lyophilization in filtered deionized water. The effective diameter of conjugated nanoparticles was higher than that of unconjugated nanoparticles.\nParticle Size Analysis: Particle size and zeta-potential of the nanoparticles before and after conjugation following lyophilization were measured in double distilled water (100 μl of particle/1 ml of water) using dynamic light scattering (DLS). After lyophilization the plasmid loaded particles were weighed (1 mg) into glass Kimble tubes. To each tube, 1 ml of double distilled water was added and vortexed at high speed (Vortex Genie, Scientific Industries, Bohemia, N.Y.) till the particles were resuspended. The particle size and zeta potential was determined using dynamic light scattering after dilution (1:10 in double distilled water) (Brookhaven Instruments Corp., Holtsville, N.Y.). Nanoparticle size after lyophilization was 210.4±0.68 nm and zeta potential was −32.85±0.87 mV. Nanoparticle size and zeta potential was measured after conjugation with deslorelin and transferrin. Similarly, the unconjugated nanoparticles were also treated under the same conditions as with the conjugated nanoparticles (the conjugation protocol as mentioned above).\nTransport studies were conducted in bovine nasal tissue. Bovine nasal tissue was obtained from freshly slaughtered cattle, and different regions (MTA, MTP, ITP) were prepared as described in Example 13. Nanoparticles coupled to deslorelin or transferring via aldehyde sulfate moieties were prepared as described in Example 3. The nanoparticle size was measured using a Zeta Plus Analyzer (Brookhaven Instruments Limited, UK). Particle size was analyzed before and after ligand conjugation in deionized filtered water."}, "ARPE-19 cells": {"system": "ARPE-19 cells", "experiment": "Nanoparticle uptake by human retinal pigment epithelial cells", "type": "cell-based", "conditions": "1 ml of 100 μg/ml suspension in serum free medium", "method": "A study was performed to examine the effect of targeting moieties on biodegradable and non-biodegradable carrier particles and their uptake in ocular cells. The biodegradable and non-biodegradable targeted carrier particles of the preceding Example were used. Uptake of nanoparticles by human retinal pigment epithelial cells (ARPE-19 cell line) was quantified by measuring fluorescence in cell lysate obtained after incubation of targeted or untargeted (unconjugated) nanoparticles with ARPE-19 cell monolayers.\nARPE-19 cells were obtained from American Type Culture Collection (ATCC, Manassas, Va.). The cells were maintained in culture according to supplier's recommendation. All studies were conducted using confluent cells of passages 20-30. Dulbecco's modified Eagle's medium (DMEM-F/12), fetal bovine serum, penicillin-streptomycin and L-glutamine were obtained from Gibco-BRL (Invitrogen Inc., Carlsbad, Calif.). Cell culture flasks (T-75 cm^2) and plates were purchased from Corning Inc., (Corning, N.Y.). To investigate the uptake of particles, ARPE-19 cells between 20-30 passages were cultured in 24-well plates until confluency. […] Fluorescence intensity of the cell lysates was determined at an excitation and emission wavelength of 505 and 515 nm, respectively, for FluoSpheres®. […]"}, "LHRH-receptor": {"target": "T1, LHRH-receptor (Bos taurus, UniProt P32236)", "T1 construct": "The tissue homogenate was then centrifuged at 15000 g for 15 min at 4° C. to separate the crude membrane from the buffer; from tissue; host or cells: bovine nasal mucosa (MTA, MTP, ITP regions) and bovine pituitary, crude membrane homogenates", "T1 sequence (P32236 1-328)": "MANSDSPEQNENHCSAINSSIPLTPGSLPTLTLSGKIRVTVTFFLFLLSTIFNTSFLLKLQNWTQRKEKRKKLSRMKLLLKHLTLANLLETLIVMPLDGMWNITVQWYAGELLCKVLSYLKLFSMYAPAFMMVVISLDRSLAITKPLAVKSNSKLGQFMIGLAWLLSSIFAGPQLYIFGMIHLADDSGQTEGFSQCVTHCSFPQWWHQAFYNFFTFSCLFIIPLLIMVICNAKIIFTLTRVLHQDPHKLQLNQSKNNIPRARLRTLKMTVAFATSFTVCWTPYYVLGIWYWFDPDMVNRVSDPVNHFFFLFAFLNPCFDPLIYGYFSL", "experiment": "Receptor binding assays (kinetic, saturation, competition) with 125I-deslorelin in bovine pituitary and nasal tissue homogenates", "conditions": "4° C.; remained stable until 4 hr", "method": "Radioactivity was measured in the pellet using a Perkin-Elmer γ-counter.\nReprod. […] Reprod. […] Radioactivity was measured in the pellet using a Perkin-Elmer γ-counter. […] The experiment was repeated three times.\nCompetition Studies: To determine the amount of unlabelled deslorelin required to displace the radioactivity, competition studies were conducted. […] Assays were performed in triplicates. At the end of 4 hr, the incubation tubes were centrifuged at 10,000 g for 20 min at 4° C. to separate the bound fraction. Radioactivity was measured in the pellet using a Perkin-Elmer γ-counter. The same controls as in the kinetic and saturation studies were used. The experiment was repeated three times."}}, "data": [{"substance": "Transferrin-PLGA: transferrin conjugated nile red loaded PLGA nanoparticles", "values": [{"measurement": "Zeta potential", "setting": "[1]", "value": "−17.94 ± 1.5", "unit": "mV"}, {"measurement": "Effective diameter", "setting": "[1]; 1:1000 dilution in filtered deionized water", "value": "385.8 ± 4.6", "unit": "nm"}, {"measurement": "percentage uptake at 3 h by ARPE-19 cells", "setting": "ARPE-19 cells", "value": "3.32±0.1", "unit": "%"}]}, {"substance": "^125I-deslorelin: I^125 labeled deslorelin radioligand (EHWSYWLRP; D-residues; non-natural residues)", "values": [{"measurement": "time at which binding reached a maximum", "setting": "LHRH-receptor", "value": 1.5, "unit": "h"}]}]}
